In EP4681729A1:

Experiments:
[1] = target: h-PVRIG-his (his-tagged human PVRIG recombinant protein) (human) (UniProt Q6DKI7); assay: Fortebio BLI, antibody on Protein A sensor, his-tagged human PVRIG 64-4 nM, 1:1 fit
[2] = target: h-PVRIG-mIgG2a Fc (mouse IgG2a Fc-tagged human PVRIG recombinant protein) (human; mouse) (UniProt Q6DKI7); assay: competition ELISA, coated h-PVRIG-mIgG2a Fc, his-tagged PVRL2 as the ligand that is blocked
[3] = target: h-PVRIG-mIgG2a Fc (mouse IgG2a Fc-tagged human PVRIG recombinant protein) (human; mouse) (UniProt Q6DKI7); assay: blocking ELISA (method of Example 2-3), human PVRL2 as the ligand that is blocked
[4] = target: h-PVRIG-his (his-tagged human PVRIG recombinant protein) (human) (UniProt Q6DKI7); assay: ELISA, human PVRIG recombinant protein
[5] = target: h-PVRIG-his (his-tagged human PVRIG recombinant protein) (human) (UniProt Q6DKI7); assay: ELISA, plate coated with PVRIG-his

h-PVRIG-his (his-tagged human PVRIG recombinant protein) (human), sequence (Q6DKI7 41-171 limits assumed): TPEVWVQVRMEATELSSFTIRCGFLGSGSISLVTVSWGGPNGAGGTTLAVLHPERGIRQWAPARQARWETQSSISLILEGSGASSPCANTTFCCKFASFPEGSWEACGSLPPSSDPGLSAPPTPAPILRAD
h-PVRIG-mIgG2a Fc (mouse IgG2a Fc-tagged human PVRIG recombinant protein) (human; mouse), sequence (Q6DKI7 41-171 limits assumed): as above

- Kd [1]: 0.219 nM
- koff [1]: 1.61e-05 s⁻¹
- kon [1]: 737000 M⁻¹ s⁻¹
- IC50 [2]: 1.16 nM
- IC50 [3]: 0.964 nM
- EC50 [4]: 1.41 nM
- EC50 [5]: 2.86 nM
B1: Tab5 (antibody, from another filing, V domains shown)
VH: EVQLVESGGGVVKPGGSLRLSCAASGFTFGTSSMNWVRQAPGKGLEWVAVISFDGTEIHYADSVKGRFTISRDNSKSTVFLQMNSLRPDDTALYYCAKGSGNIYFYSGMDVWGQGTTVTVSS
VL: DIQMTQSPSTLSASVGDRVTITCRAGQSISGWLAWFQQKPGKAPNLLIYETSTLESGVPSRFSGSGSGTEYTLTISSLQPDDFATYYCQQYYSYPLTFGQGTKVEIKR
